# In the Human Domainome abundance scans (Beltran et al. 2025):
# ± gives the uncertainty stated by the source.
# B1: Transitional endoplasmic reticulum ATPase, residues 26 to 106; numbered along this chain, P55072 (parent)
# chain: LIVDEAINEDNSVVSLSQPKMDELQLFRGDTVLLKGKKRREAVCIVLSDDTCSDEKIRMNRVVRNNLRVRLGDVISIQPCP
# Variants of: B1
# Experiment: abundance fitness (aPCA) (normalised: wild type 0, dead -1); higher = more abundant; growth selection in yeast, the domain comes from the species named
# Settings: Homo sapiens
row,Variant,abundance fitness
1,L47S,-0.068 ± 0.061
2,L34F,-0.856 ± 0.39
3,L34A,-0.292 ± 0.1
4,L34S,-0.757 ± 0.12
5,L34C,0.26 ± 0.41
6,L34Q,-0.461 ± 0.32
7,L34T,-0.558 ± 0.07
8,G29H,0.059 ± 0.17
9,G29R,-0.197 ± 0.056
10,G29F,-0.157 ± 0.098
11,G29C,-0.259 ± 0.1
12,S12P,-0.126 ± 0.065
13,S12N,-0.086 ± 0.083
14,A6Q,0.007 ± 0.073
15,A6P,0.024 ± 0.087
16,A6N,-0.004 ± 0.22
17,A6D,-0.054 ± 0.09
18,A6L,0.092 ± 0.051
19,N8C,-0.015 ± 0.058
20,N8A,-0.059 ± 0.059
21,N8G,0.022 ± 0.037

row,Variant,abundance fitness
1,N8E,0.013 ± 0.061
2,S76E,-0.096 ± 0.088
3,S76F,-0.043 ± 0.11
4,S76Y,-0.107 ± 0.12
5,I75C,-0.265 ± 0.12
6,I75W,-1.04 ± 0.37
7,I75E,-0.633 ± 0.19
8,D49V,-0.455 ± 0.068
9,D49R,-0.627 ± 0.064
10,D49F,-0.936 ± 0.29
11,D49S,0.064 ± 0.057
12,D49P,-0.743 ± 0.21
13,D4N,-0.332 ± 0.16
14,D4H,-0.04 ± 0.26
15,V3P,-0.948 ± 0.31
16,V3K,-0.639 ± 0.23
17,V3E,-0.809 ± 0.17
18,V3L,-0.708 ± 0.12
19,V3Q,-0.891 ± 0.17
20,K35N,0.032 ± 0.16
21,K35E,-0.116 ± 0.16

row,Variant,abundance fitness
1,K35M,-0.02 ± 0.082
2,K35R,0.006 ± 0.081
3,S17A,-0.174 ± 0.052
4,S17M,-0.995 ± 0.15
5,L16I,-0.005 ± 0.075
6,L16C,-0.083 ± 0.087
7,L16A,-0.65 ± 0.062
8,L16E,-0.762 ± 0.15
9,L16Q,-0.584 ± 0.1
10,L26R,-0.939 ± 0.088
11,L26W,-0.447 ± 0.054
12,L26V,-0.027 ± 0.057
13,V69W,-0.987 ± 0.24
14,V69H,-1 ± 0.43
15,V69K,-0.514 ± 0.18
16,V69C,0.067 ± 0.072
17,D10N,-0.228 ± 0.13
18,D10I,-0.121 ± 0.044
19,D10H,0.098 ± 0.13
20,D10W,-0.189 ± 0.071
21,D10P,-0.02 ± 0.071

row,Variant,abundance fitness
1,D10V,-0.14 ± 0.041
2,L33K,-0.045 ± 0.1
3,L33Y,0.086 ± 0.12
4,L33Q,-0.109 ± 0.087
5,L33C,0.055 ± 0.094
6,L33H,-0.031 ± 0.11
7,Q18V,0.001 ± 0.05
8,Q18G,-0.034 ± 0.043
9,Q18A,-0.003 ± 0.072
10,Q18L,-0.049 ± 0.052
11,Q18C,-0.074 ± 0.067
12,R61P,-0.003 ± 0.15
13,R61C,0.005 ± 0.16
14,R61T,-0.009 ± 0.092
15,V14F,-1.06 ± 0.25
16,V14H,-0.956 ± 0.2
17,F27R,0.009 ± 0.057
18,F27E,0.095 ± 0.081
19,F27Q,-0.098 ± 0.1
20,F27C,0.045 ± 0.076
21,F27P,-0.238 ± 0.084
